Results: publication PMC9364107

Biological target: SF3B1 residues 147–462 (ULM-containing N-terminal region) (human) (UniProt O75533)
Assay: ITC

Chain of SF3B1 residues 147–462 (ULM-containing N-terminal region) (human) (O75533 147-462): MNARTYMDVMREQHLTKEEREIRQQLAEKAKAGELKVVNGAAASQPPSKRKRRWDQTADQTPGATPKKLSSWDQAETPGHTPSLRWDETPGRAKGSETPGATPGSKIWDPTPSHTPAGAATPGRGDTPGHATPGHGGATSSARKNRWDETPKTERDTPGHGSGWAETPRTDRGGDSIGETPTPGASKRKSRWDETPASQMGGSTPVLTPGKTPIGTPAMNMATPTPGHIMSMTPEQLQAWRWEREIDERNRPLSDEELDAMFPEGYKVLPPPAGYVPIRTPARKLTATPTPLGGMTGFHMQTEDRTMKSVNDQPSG

stoichiometry N: 2
Substance: U2AF2^12UL (nearly full-length U2AF2, residues 141–471) (domain or fragment)
